In US20220017623A1, “TREATMENT OF CANCER USING A CEA CD3 BISPECIFIC ANTIBODY AND A WNT SIGNALING INHIBITOR” (Hoffmann-La Roche Inc., priority 2019, published 2022):
Read-outs that look alike come from different tables or passages of the source.

Columns and labels:
[1] = test system: patient derived colorectal cancer organoids (PDOs); test: allogeneic CD8 T cell co-culture assay with patient derived colorectal cancer organoids, GFP confluence growth assessment; type: cell-based, human; settings: 20 nM
Method: In order to assess the sensitivity of patient-derived colorectal cancer organoids (PDOs) to cibisatamab immunotherapy, eight patient derived colorectal cancer organoid lines with various cell surface CEA expression levels were generated and treated with cibisatamab (20 nM) or an untargeted control antibody (20 nM) during 10 days of co-culture with allogeneic CD8 T cells. CD8 T cells were isolated from allogeneic healthy donor peripheral blood mononuclear cells (PBMCs) by magnetic bead sorting and expanded in vitro with IL2 and CD3/CD28 beads for 7-14 days. GFP-tagged CRC PDO cells were then seeded in 96 well plates, T cells were added the following day and the co-cultures were imaged every 2-3 days on an automated 96 well plate fluorescence microscope. […] Co-culture with CD8 T cells without any antibody was included as a further control to enable the identification of alloreactive donor T cells.
Eight PDO lines were tested: three CEAhi PDOs (i.e. containing predominantly CEAhi cells; CRC-01, CRC-05, CRC-07), four PDOs with mixed CEA expression (i.e. containing large subpopulations of both CEAhi and CEAlo cells; CRC-02, CRC-03, CRC-04, CRC-08), and one CEAlo PDO (i.e. containing predominantly CEAlo cells; CRC-06).
PDOs were harvested with TrypLE Express and neutralised with DMEM/F12 Ham medium (Sigma Aldrich) with 10% FBS. Cells were filtered through a 70 μm filter, counted and resuspended in phenol-red free RPMI medium (Thermo Fisher) supplemented with 10% FBS (Biosera), 1× Glutamax and 100 units penicillin-streptomycin. On day 0, 5000 tumor cells per well of a 96 well-plate (Corning Special Optics Microplate) were plated. CD8 T cells were added on day 1 at the indicated effector to target (E:T) ratios with 20 nM of cibisatamab or 20 nM of the untargeted negative control antibody DP47-TCB (both provided by Roche). Tumor cells without CD8 T cells and without antibody were also included as controls. All conditions were plated in triplicates and at least 3 different healthy donors were tested on each of the 8 PDOs.
The GFP confluence was quantified every 48h-72h over a 10-day period using the GFP confluence application on the Celigo Imaging Cytometer (Nexcelom Bioscience). GFP confluence analysis was able to track the growth of GFP positive PDO cells over multiple timepoints without erroneously counting the T cells in the co-culture. […] The main advantage of confluence analysis over measuring spheroid diameters is the ability to track even the growth of PDOs showing highly variable shapes. Growth curves were generated with CD8 T cells from three different healthy blood donors. […]

[2] = test system: CEA expressing metastatic CRCs; settings: cited from earlier work

B1: cibisatamab (antibody, chains of the INN, looked up, V domains shown)
VH: QVQLVQSGAEVKKPGASVKVSCKASGYTFTEFGMNWVRQAPGQGLEWMGWINTKTGEATYVEEFKGRVTFTTDTSTSTAYMELRSLRSDDTAVYYCARWDFAYYVEAMDYWGQGTTVTVSS
VL: DIQMTQSPSSLSASVGDRVTITCKASAAVGTYVAWYQQKPGKAPKLLIYSASYRKRGVPSRFSGSGSGTDFTLTISSLQPEDFATYYCHQYYTYPLFTFGQGTKLEIK
VH2: B1 VH
VL2: QAVVTQEPSLTVSPGGTVTLTCGSSTGAVTTSNYANWVQEKPGQAFRGLIGGTNKRAPGTPARFSGSLLGGKAALTLSGAQPEDEAEYYCALWYSNLWVFGGGTKLTVL
growth inhibition ([1]; CEAhi PDOs (CRC-01, CRC-05, CRC-07), CD8 T cells E:T 2:1, 7-10 days, versus DP47-TCB control): 89-100% | reduction of the cancer cell growth rate compared to controls ([1]; four PDOs with mixed CEA expression (CRC-02, CRC-03, CRC-04, CRC-08), E:T 2:1): only a moderate reduction of the cancer cell growth rate | sensitivity to treatment with CD8 T cells and antibody ([1]; predominantly CEAlo PDO CRC-06, E:T 2:1): showed resistance | sensitivity to treatment with CD8 T cells and antibody ([1]; three CEAhi PDOs, E:T 2:1): highly sensitive | patients with radiological shrinkage (antitumor activity) ([2]; in combination with PD-L1-inhibiting antibodies, 5/10 patients): 50% | patients with radiological shrinkage (antitumor activity) ([2]; monotherapy, metastatic CRC after at least two prior chemotherapy regimens, 4/36 patients): 11%
